In patent US20140271457A1 (AbbVie / Abbott, published 2014):

Biological target: Recombinant Human TNF-α/TNFSF1A (human, UniProt P01375 77-233)
Assay: cell-based or functional assay

Sequence of Recombinant Human TNF-α/TNFSF1A (P01375 77-233 limits assumed): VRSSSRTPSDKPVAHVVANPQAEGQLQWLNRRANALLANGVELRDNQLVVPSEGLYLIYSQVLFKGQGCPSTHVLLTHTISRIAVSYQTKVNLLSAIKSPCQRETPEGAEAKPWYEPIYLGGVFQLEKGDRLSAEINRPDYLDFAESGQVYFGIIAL

| Binder | N-Terminal VD huTNFα Neutralization Assay IC50 [nM] | C-Terminal VD huTNFα Neutralization Assay IC50 [nM] |
| --- | --- | --- |
| DVD3103 (bispecific antibody, IgG1) VH: EVQLVQSGAEVKKPGASVKVSCKASGYTFANYGIIWVRQAPGQGLEWMGWINTYTGKPTYAQKFQGRVTMTTDTSTSTAYMELSSLRSEDTAVYYCARKLFTTMDVTDNAMDYWGQGTTVTVSSGGGGSGGGGSEVQLVESGGGLVQPGGSLRLSCAASGFTFSNYGVTWVRQAPGKGLEWVSMIWADGSTHYASSVKGRFTISRDNSKNTLYLQMNSLRAEDTAVYYCAREWQHGPVAYWGQGTLVTVSS VL: DIQMTQSPSSLSASVGDRVTITCRASQDISQYLNWYQQKPGKAPKLLIYYTSRLQSGVPSRFSGSGSGTDFTLTISSLQPEDFATYFCQQGNTWPPTFGQGTKLEIKRGGSGGGGSGDIQMTQSPSSLSASVGDRVTITCRASQLVSSAVAWYQQKPGKAPKLLIYWASARHTGVPSRFSGSGSGTDFTLTISSLQPEDFATYYCQQHYKTPFTFGQGTKLEIKR | 0.016 |  |
| DVD3108 (bispecific antibody, IgG1) VH: EVQLVQSGAEVKKPGASVKVSCKASGYTFTTYGVSWVRQAPGQGLEWMGEIYPGNYNTYYNEKFRGRVTMTTDTSTSTAYMELRSLRSDDTAVYYCARWRTSYFSDYGYFDYWGQGTTVTVSSGGGGSGGGGSEVQLVQSGAEVKKPGASVKVSCKASGYTFANYGIIWVRQAPGQGLEWMGWINTYTGKPTYAQKFQGRVTMTTDTSTSTAYMELSSLRSEDTAVYYCARKLFTTMDVTDNAMDYWGQGTTVTVSS VL: DVVMTQSPLSLPVTLGQPASISCRSSQSLVHSHGNTYLHWYQQRPGQSPRLLIYTVSNRFSGVPDRFSGSGSGTDFTLKISRVEAEDVGVYYCSQSTHVPYTFGGGTKVEIKRGGSGGGGSGDIQMTQSPSSLSASVGDRVTITCRASQDISQYLNWYQQKPGKAPKLLIYYTSRLQSGVPSRFSGSGSGTDFTLTISSLQPEDFATYFCQQGNTWPPTFGQGTKLEIKR |  | 0.183 |
| DVD3109 (bispecific antibody, IgG1) VH: EVQLVQSGAEVKKPGASVKVSCKASGYTFTTYGVSWVRQAPGQGLEWMGEIYPGNYNTYYNEKFRGRVTMTTDTSTSTAYMELRSLRSDDTAVYYCARWRTSYFSDYGYFDYWGQGTTVTVSSASTKGPEVQLVQSGAEVKKPGASVKVSCKASGYTFANYGIIWVRQAPGQGLEWMGWINTYTGKPTYAQKFQGRVTMTTDTSTSTAYMELSSLRSEDTAVYYCARKLFTTMDVTDNAMDYWGQGTTVTVSS VL: DVVMTQSPLSLPVTLGQPASISCRSSQSLVHSHGNTYLHWYQQRPGQSPRLLIYTVSNRFSGVPDRFSGSGSGTDFTLKISRVEAEDVGVYYCSQSTHVPYTFGGGTKVEIKRTVAAPDIQMTQSPSSLSASVGDRVTITCRASQDISQYLNWYQQKPGKAPKLLIYYTSRLQSGVPSRFSGSGSGTDFTLTISSLQPEDFATYFCQQGNTWPPTFGQGTKLEIKR |  | 0.731 |
| DVD3111 (bispecific antibody, IgG1) VH: EVQLVQSGAEVKKPGASVKVSCKASGYTFTTYGVSWVRQAPGQGLEWMGEIYPGNYNTYYNEKFRGRVTMTTDTSTSTAYMELRSLRSDDTAVYYCARWRTSYFSDYGYFDYWGQGTTVTVSSASTKGPEVQLVQSGAEVKKPGASVKVSCKASGYTFANYGIIWVRQAPGQGLEWMGWINTYTGKPTYAQKFQGRVTMTTDTSTSTAYMELSSLRSEDTAVYYCARKLFTTMDVTDNAMDYWGQGTTVTVSS VL: DVVMTQSPLSLPVTLGQPASISCRSSQSLVHSHGNTYLHWYQQRPGQSPRLLIYTVSNRFSGVPDRFSGSGSGTDFTLKISRVEAEDVGVYYCSQSTHVPYTFGGGTKVEIKRTVAAPSVFIFPPDIQMTQSPSSLSASVGDRVTITCRASQDISQYLNWYQQKPGKAPKLLIYYTSRLQSGVPSRFSGSGSGTDFTLTISSLQPEDFATYFCQQGNTWPPTFGQGTKLEIKR |  | 0.146 |
| DVD3112 (bispecific antibody, IgG1) VH: EVQLVQSGAEVKKPGASVKVSCKASGYTFTTYGVSWVRQAPGQGLEWMGEIYPGNYNTYYNEKFRGRVTMTTDTSTSTAYMELRSLRSDDTAVYYCARWRTSYFSDYGYFDYWGQGTTVTVSSASTKGPSVFPLAPEVQLVQSGAEVKKPGASVKVSCKASGYTFANYGIIWVRQAPGQGLEWMGWINTYTGKPTYAQKFQGRVTMTTDTSTSTAYMELSSLRSEDTAVYYCARKLFTTMDVTDNAMDYWGQGTTVTVSS VL: DVVMTQSPLSLPVTLGQPASISCRSSQSLVHSHGNTYLHWYQQRPGQSPRLLIYTVSNRFSGVPDRFSGSGSGTDFTLKISRVEAEDVGVYYCSQSTHVPYTFGGGTKVEIKRTVAAPDIQMTQSPSSLSASVGDRVTITCRASQDISQYLNWYQQKPGKAPKLLIYYTSRLQSGVPSRFSGSGSGTDFTLTISSLQPEDFATYFCQQGNTWPPTFGQGTKLEIKR |  | 0.387 |
| DVD3098 (bispecific antibody, IgG1) VH: EVQLVQSGAEVKKPGASVKVSCKASGYTFTTYGVSWVRQAPGQGLEWMGEIYPGNYNTYYNEKFRGRVTMTTDTSTSTAYMELRSLRSDDTAVYYCARWRTSYFSDYGYFDYWGQGTTVTVSSGGGGSGGGGSEVQLVESGGGLVQPGGSLRLSCAASGFTFSNYGVEWVRQAPGKGLEWVSGIWADGSTHYADTVKSRFTISRDNSKNTLYLQMNSLRAEDTAVYYCAREWQHGPVAYWGQGTLVTVSS VL: DVVMTQSPLSLPVTLGQPASISCRSSQSLVHSHGNTYLHWYQQRPGQSPRLLIYTVSNRFSGVPDRFSGSGSGTDFTLKISRVEAEDVGVYYCSQSTHVPYTFGGGTKVEIKRGGSGGGGSGDIQMTQSPSSLSASVGDRVTITCKASQLVSSAVAWYQQKPGKAPKLLIYWASTLHTGVPSRFSGSGSGTDFTLTISSLQPEDFATYYCQQHYRTPFTFGQGTKLEIKR | 0.012 |  |
| DVD3104 (bispecific antibody, IgG1) VH: EVQLVQSGAEVKKPGASVKVSCKASGYTFANYGIIWVRQAPGQGLEWMGWINTYTGKPTYAQKFQGRVTMTTDTSTSTAYMELSSLRSEDTAVYYCARKLFTTMDVTDNAMDYWGQGTTVTVSSASTKGPEVQLVESGGGLVQPGGSLRLSCAASGFTFSNYGVTWVRQAPGKGLEWVSMIWADGSTHYASSVKGRFTISRDNSKNTLYLQMNSLRAEDTAVYYCAREWQHGPVAYWGQGTLVTVSS VL: DIQMTQSPSSLSASVGDRVTITCRASQDISQYLNWYQQKPGKAPKLLIYYTSRLQSGVPSRFSGSGSGTDFTLTISSLQPEDFATYFCQQGNTWPPTFGQGTKLEIKRTVAAPDIQMTQSPSSLSASVGDRVTITCRASQLVSSAVAWYQQKPGKAPKLLIYWASARHTGVPSRFSGSGSGTDFTLTISSLQPEDFATYYCQQHYKTPFTFGQGTKLEIKR | 0.033 |  |
| DVD3117 (bispecific antibody, IgG1) VH: EVQLVQSGAEVKKPGASVKVSCKASGYTFNNYGIIWVRQAPGQGLEWMGWINTYTGKPTYAQKFQGRVTMTTDTSTSTAYMELSSLRSEDTAVYYCARKLFNTVAVTDNAMDYWGQGTTVTVSSASTKGPSVFPLAPEVQLVESGGGLVQPGGSLRLSCAASGFTFSNYGVTWVRQAPGKGLEWVSMIWADGSTHYASSVKGRFTISRDNSKNTLYLQMNSLRAEDTAVYYCAREWQHGPVAYWGQGTLVTVSS VL: DIQMTQSPSSLSASVGDRVTITCRASQDIENYLNWYQQKPGKAPKLLIYYTSRLQSGVPSRFSGSGSGTDFTLTISSLQPEDFATYFCQQGNTQPPTFGQGTKLEIKRTVAAPDIQMTQSPSSLSASVGDRVTITCRASQLVSSAVAWYQQKPGKAPKLLIYWASARHTGVPSRFSGSGSGTDFTLTISSLQPEDFATYYCQQHYKTPFTFGQGTKLEIKR | 1.96 |  |
| DVD3099 (bispecific antibody, IgG1) VH: EVQLVQSGAEVKKPGASVKVSCKASGYTFTTYGVSWVRQAPGQGLEWMGEIYPGNYNTYYNEKFRGRVTMTTDTSTSTAYMELRSLRSDDTAVYYCARWRTSYFSDYGYFDYWGQGTTVTVSSASTKGPEVQLVESGGGLVQPGGSLRLSCAASGFTFSNYGVEWVRQAPGKGLEWVSGIWADGSTHYADTVKSRFTISRDNSKNTLYLQMNSLRAEDTAVYYCAREWQHGPVAYWGQGTLVTVSS VL: DVVMTQSPLSLPVTLGQPASISCRSSQSLVHSHGNTYLHWYQQRPGQSPRLLIYTVSNRFSGVPDRFSGSGSGTDFTLKISRVEAEDVGVYYCSQSTHVPYTFGGGTKVEIKRTVAAPDIQMTQSPSSLSASVGDRVTITCKASQLVSSAVAWYQQKPGKAPKLLIYWASTLHTGVPSRFSGSGSGTDFTLTISSLQPEDFATYYCQQHYRTPFTFGQGTKLEIKR | 0.003 |  |
| DVD3102 (bispecific antibody, IgG1) VH: EVQLVQSGAEVKKPGASVKVSCKASGYTFTTYGVSWVRQAPGQGLEWMGEIYPGNYNTYYNEKFRGRVTMTTDTSTSTAYMELRSLRSDDTAVYYCARWRTSYFSDYGYFDYWGQGTTVTVSSASTKGPSVFPLAPEVQLVESGGGLVQPGGSLRLSCAASGFTFSNYGVEWVRQAPGKGLEWVSGIWADGSTHYADTVKSRFTISRDNSKNTLYLQMNSLRAEDTAVYYCAREWQHGPVAYWGQGTLVTVSS VL: DVVMTQSPLSLPVTLGQPASISCRSSQSLVHSHGNTYLHWYQQRPGQSPRLLIYTVSNRFSGVPDRFSGSGSGTDFTLKISRVEAEDVGVYYCSQSTHVPYTFGGGTKVEIKRTVAAPDIQMTQSPSSLSASVGDRVTITCKASQLVSSAVAWYQQKPGKAPKLLIYWASTLHTGVPSRFSGSGSGTDFTLTISSLQPEDFATYYCQQHYRTPFTFGQGTKLEIKR |  | 0.294 |
| DVD3101 (bispecific antibody, IgG1) VH: EVQLVQSGAEVKKPGASVKVSCKASGYTFTTYGVSWVRQAPGQGLEWMGEIYPGNYNTYYNEKFRGRVTMTTDTSTSTAYMELRSLRSDDTAVYYCARWRTSYFSDYGYFDYWGQGTTVTVSSASTKGPEVQLVESGGGLVQPGGSLRLSCAASGFTFSNYGVEWVRQAPGKGLEWVSGIWADGSTHYADTVKSRFTISRDNSKNTLYLQMNSLRAEDTAVYYCAREWQHGPVAYWGQGTLVTVSS VL: DVVMTQSPLSLPVTLGQPASISCRSSQSLVHSHGNTYLHWYQQRPGQSPRLLIYTVSNRFSGVPDRFSGSGSGTDFTLKISRVEAEDVGVYYCSQSTHVPYTFGGGTKVEIKRTVAAPSVFIFPPDIQMTQSPSSLSASVGDRVTITCKASQLVSSAVAWYQQKPGKAPKLLIYWASTLHTGVPSRFSGSGSGTDFTLTISSLQPEDFATYYCQQHYRTPFTFGQGTKLEIKR |  | 0.308 |
